Positions count from the first letter of the chain named.
T1: mouse NCoR RID ΔID2 mutant (mouse)
T1 chain: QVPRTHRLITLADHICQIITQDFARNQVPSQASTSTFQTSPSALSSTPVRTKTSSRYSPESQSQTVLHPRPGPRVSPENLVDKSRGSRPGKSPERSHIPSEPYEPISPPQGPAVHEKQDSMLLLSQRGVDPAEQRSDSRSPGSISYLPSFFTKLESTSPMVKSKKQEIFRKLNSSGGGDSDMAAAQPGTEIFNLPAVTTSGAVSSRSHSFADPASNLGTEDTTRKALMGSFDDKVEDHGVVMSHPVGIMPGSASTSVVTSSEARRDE

T2: mouse NCoR receptor interaction domain (residues 1942 to 2208 in the X50 splice variant), wild type (mouse)
T2 chain: T1 chain with T219L, T222I, T223I

T3: NCoR ID2 peptide (not fully specified; N-terminal amidation and C-terminal acetylation (so in the source))
T3 construct: source: synthetic peptide, bought: LifeTein
T3 peptide: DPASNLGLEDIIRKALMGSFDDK

T4: NCoR ID1 peptide (not fully specified; N-terminal amidation and C-terminal acetylation (so in the source))
T4 construct: source: synthetic peptide, bought: LifeTein
T4 peptide: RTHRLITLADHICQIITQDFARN

B1: human REV-ERBβ ligand-binding domain (residues 381 to 579) (domain or fragment, UniProt Q14995 381-579, looked up)
chain: HLVCPMSKSPYVDPHKSGHEIWEEFSMSFTPAVKEVVEFAKRIPGFRDLSQHDQVNLLKAGTFEVLMVRFASLFDAKERTVTFLSGKKYSVDDLHSMGAGDLLNSMFEFSEKLNALQLSDEEMSLFTAVVLVSADRSGIENVNSVEALQETLIRALRTLIMKNHPNEASIFTKLLLKLPDLRSLNNMHSEELLAFKVHP
notes: cloned into pET46; Used ligand-free (apo) or loaded with heme (a small molecule; 1.05 to 2 molar equivalents); the two states are told apart by the assays; also called REV-ERBβ LBD; LBD; source: E. coli BL21(DE3), purified (IMAC, 3C protease cleavage, size exclusion); 15N-labelled in M9 minimal media for NMR; not shown: 6xHis, N-terminal, cleaved

How the values were obtained:
[1] = heme fluorescence quenching; details: fig. S2C
[2] = system: REV-ERBβ LBD; experiment: DSSO chemical cross-linking, SDS-PAGE; type: binding, human; details: LBD-only samples, 600 μM DSSO, 25°C, 45 min
Method: To further support this stoichiometry, we performed chemical cross-linking analysis of apo or heme-bound LBD ± RID using DSSO (disuccinimidyl sulfoxide), a cross-linker that cross-links lysine residues as well as serine, threonine, and tyrosine residues (fig. S9, A and B).
(§1) Apo or heme-bound REV-ERBβ LBD and NCoR RID protein samples were cross-linked in Hepes gel filtration buffer [25 mM Hepes (pH 7.5) at room temperature, 50 mM NaCl, and 0.5 mM TCEP]. Non–cross-linked negative controls were generated using the same procedure without the addition of DSSO (Thermo Fisher Scientific). Samples included 4 μM apo LBD with or without 2 μM RID and 4 μM heme-bound LBD with or without 2 μM RID; complexes were preincubated 1 hour on ice. Reactions were initiated by spiking DSSO in DMSO at a final concentration of 600 μM in 50-μl solutions. The final molar ratio of cross-linker:protein was 100:1. The reactions were incubated at 25°C for 45 min before being quenched by the addition of tris (pH 8.0) to a final concentration of 50 mM. Each cross-link reaction was done in triplicate, and the reaction replicates were pooled after quenching. Samples (10 μl) were loaded for SDS-PAGE analysis with Coomassie staining to confirm the presence of cross-linked protein. […]

[3] = system: REV-ERB LBD interaction with NCoR ID motif peptides; details: REV-ERBs; cited from earlier work
Source text: The iron-centered porphyrin heme has been identified as the endogenous REV-ERB ligand ([7], [8]). […] Structural data would help establish that heme directly produces a REV-ERB LBD conformation that enhances NCoR binding. However, published biochemical and structural studies contradict cell-based evidence ([7]–[11]).

[4] = system: REV-ERB LBD interaction with NCoR ID motif peptides; experiment: fluorescence-based peptide binding assays; details: fig. S2A; authors attribute it to heme quenching artifact
[5] = system: REV-ERBβ LBD / NCoR RID; experiment: Chemical cross-linking mass spectrometry (XL-MS); type: binding; details: LBD:RID complexes ± heme; DSSO; significant at Padj < 0.05
Method: as §1, with “protein. The remaining cross-linked and non–cross-linked samples were then acetone-precipitated at −20°C overnight, and the protein was pelleted by centrifugation at 16,000 relative centrifugal force (rcf) for 5 min at 4°C. After decanting, the pellets were dried for 15 min at room temperature before being resuspended in 12.5 μl of resuspension buffer [50 mM ammonium bicarbonate and 8 M urea (pH 8.0)].” for “protein.”

[6] = target: T1, mouse NCoR RID ΔID2 mutant; experiment: ITC; apo LBD (300 μM, syringe; for WT RID 2 × 20 injections of 150 μM) titrated into RID construct (15 μM, cell); 25°C; Hepes assay buffer; WT RID fit to two nonsymmetric sites, microscopic K model; ΔID2 fit to A + B ↔ AB; details: both partners purified
[7] = target: T2, mouse NCoR receptor interaction domain …; experiment: as above; details: both partners purified
[8] = target: T2, mouse NCoR receptor interaction domain …; experiment: as above; details: both partners purified
[9] = target: T2, mouse NCoR receptor interaction domain …; experiment: ITC; heme-bound LBD (300 μM, syringe) titrated into RID construct (15 μM, cell), 4 molar equivalents; 25°C; Hepes assay buffer; WT RID fit to A + B ↔ AB; details: both partners purified
[10] = target: T3, NCoR ID2 peptide; experiment: ITC; heme-bound LBD (500 μM with 1.05 molar equivalents of heme, syringe) titrated into ID peptide (50 μM, cell); 25°C; 20 mM Hepes pH 7.4, 50 mM KCl, 0.5 mM EDTA, 5 mM TCEP; A + B ↔ AB model in SEDPHAT; details: both partners purified
[11] = target: T4, NCoR ID1 peptide; experiment: as above; details: both partners purified
[12] = target: T3, NCoR ID2 peptide; experiment: ITC; apo LBD (500 μM, syringe) titrated into ID peptide (50 μM, cell); 25°C; 20 mM Hepes pH 7.4, 50 mM KCl, 0.5 mM EDTA, 5 mM TCEP; A + B ↔ AB model in SEDPHAT; details: both partners purified
[13] = target: T4, NCoR ID1 peptide; experiment: as above; details: both partners purified
[14] = target: T2, mouse NCoR receptor interaction domain …; experiment: ITC; heme-bound LBD (300 μM, syringe) titrated into RID construct (15 μM, cell), 4 molar equivalents; 25°C; Hepes assay buffer; WT RID fit to A + B ↔ AB; details: both partners purified

Row | Molecule | heme quenching of fluorophores [1] | LBD dimer band by cross-linking SDS-PAGE, effect of heme [2] | displacement of NCoR ID peptides in fluorescence-based biochemical assays [3] | effect of heme on ID peptide interaction in fluorescence-based assays [4] | effect of heme on cross-links [5] | dH [6] | KD site 1 [7] | KD site 2 [7] | dH site 1 [7] | dH site 2 [7] | stoichiometry N [8] | dH [9] | dH [10] | dH [11] | dH [12] | dH [13] | stoichiometry N [14]
1 | C=CC1=C(C)c2cc3[n-]c(cc4[n-]c(cc5nc(cc1n2)C(C)=C5C=C)c(C)c4CCC(=O)O)c(CCC(=O)O)c3C.[Fe+2] [heme] | quenches fluorophores across a broad range of emissions | weak dimer band in LBD-only samples that was unchanged by heme | dose-dependently displace NCoR interaction domain (ID) peptides from the REV-ERBs | dose-dependently reduces REV-ERB LBD interaction with peptides derived from NCoR ID motifs | reduced LBD-LBD and LBD-RID cross-links, particularly for residues in the AF-2 surface | – | – | – | – | – | – | – | – | – | – | – | –
2 | B1 | – | – | – | – | – | -9.4 kcal/mol | 12 nM | 740 nM | -8.3 kcal/mol | 3.2 kcal/mol | 2 LBD per RID | 1.7 kcal/mol | 3 kcal/mol | 1.7 kcal/mol | -9.7 kcal/mol | -7.7 kcal/mol | ~2 LBD per RID

— paper PMC7840129, “Structural basis for heme-dependent NCoR binding to the transcriptional repressor REV-ERBβ” (Science Advances, 2021)
